The target in assay [1] is T1, 人TIM-3 (recombinant antigen of the ELISA of Example 3: TIM-3-hFc captured on goat-anti-hFc, or Tim-3-his … (human, UniProt Q8TDQ0 22-202)).
T1 construct: extracellular domain; also called 人TIM-3抗原; not shown: a His tag instead if Tim-3-his was coated
The assay can be described thus: ELISA on human TIM-3 (Example 3). (An ELISA detects its analyte on a solid surface through an enzyme-linked reagent.)

The target of assay [2] is 猕猴(Macaca)Tim-3蛋白 (猕猴(Macaca)). The assay can be described thus: ELISA (method of Example 3), Fig. 4a.
Another assay deals with T2, 狨猴(marmoset) Tim-3蛋白 (狨猴(marmoset), UniProt F7I881 21-290).
T2 sequence: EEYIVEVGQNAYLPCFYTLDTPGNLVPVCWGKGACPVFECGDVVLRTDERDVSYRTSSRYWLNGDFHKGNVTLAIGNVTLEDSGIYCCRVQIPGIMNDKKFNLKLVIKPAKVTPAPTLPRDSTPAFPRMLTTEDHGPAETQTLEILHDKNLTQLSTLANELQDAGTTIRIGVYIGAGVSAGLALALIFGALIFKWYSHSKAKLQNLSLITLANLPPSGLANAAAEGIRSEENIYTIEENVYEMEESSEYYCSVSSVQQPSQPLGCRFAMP
The assay can be described thus: ELISA (method of Example 3), Fig. 4b.

In assay [3] the target is T1, 人TIM-3 (recombinant antigen of the …). The assay can be described thus: ELISA on human TIM-3 (Example 3). The source holds these as a separate data set.
Assay [4] addresses T3, 人Tim-3 on CHO-K1 hTim-3+ cells (human, UniProt Q8TDQ0 22-301).
T3 construct: whole, on cells; Mature protein 22-301; also called hTim-3+细胞; 人Tim-3+细胞
The assay can be described thus: cell ELISA on fixed CHO-K1 hTim-3+ cells (Example 2).

The target of assay [5] is T1, 人TIM-3 (recombinant antigen of the …). The assay can be described thus: ELISA on human TIM-3, against ABTIM3 as reference.
In assay [6] the target is T4, 人Tim-3 (antigen, analyte of the Biacore assay of Example 7) (human, UniProt Q8TDQ0 22-199).
T4 construct: Antibody captured on Protein A chip, antigen TIM-3 flowed at 0-30 nM; also called 抗原TIM-3
As to the kind of experiment: SPR, Biacore T200, antibody captured on Protein A, TIM-3 as analyte, 1:1 Langmuir. (In general: Surface plasmon resonance follows binding to a sensor surface in real time, without labels.)

The target of assay [7] is T4, 人Tim-3 (antigen, analyte of the Biacore …). The assay can be described thus: SPR, Biacore, method of Example 7.
For assay [8], the target named is 猕猴(Macaca)Tim-3蛋白 (猕猴(Macaca)). As to the kind of experiment: ELISA, against ABTIM3 as reference.

This is an account of results in patent CN110272489A (SHANGHAI JIANXIN BIOPHARMACEUTICALS LLC, dated 2019).

Residue numbers refer to the chain shown, from its start. Where two headings read alike, the source gives them in different places.

B1: 人源化ab17抗体 (antibody, human IgG4 S228P, kappa, V domains shown)
VH: EVQLVESGGGLVKPGGSLRLSCAASGFTFSDYYMTWVRQAPGKGLEWVASINYDGRNTYYLDSLKSRFTISRDNAKNSLYLQMNSLRAEDTAVYYCARGYYYYGSSPNYFDYWGQGTLVTVSS
VL: DIQMTQSPSSLSASVGDRVTITCRASENIYSYLTWYQQKPGKSPKLLVYNAKTLAEGVPSRFSGSGSGTQFTLTISSLQPEDFATYYCQQHYGTPLTFGQGTKLEIKR
notes: Humanized, hIgG4-kappa
Regarding B1, the EC50 in assay [1] stood at 0.212 nM.

B2: 人源化ab23抗体 (antibody, human IgG4 S228P, kappa, V domains shown)
VH: B1 VH with S78I
VL: B1 VL with T72S, T85N
notes: Humanized, hIgG4-kappa
As for B2, in assay [1], the concentration for a half-maximal effect (EC50) turned out to be 0.21 nM.

B3: 人源化ab18抗体 (antibody, human IgG4 S228P, kappa, V domains shown)
VH: B1 VH
VL: B1 VL with S43A, V48I, Q70D
notes: Humanized, hIgG4-kappa
As for B3, the EC50 in [1] was 0.198 nM.

B4: 人源化ab24抗体 (antibody, human IgG4 S228P, kappa, V domains shown)
VH: B1 VH with S78I
VL: B1 VL
notes: Humanized, hIgG4-kappa
Regarding B4, the concentration giving a half-maximal response (EC50) in assay [1] turned out to be 0.243 nM.

B5: 人源化ab30抗体 (antibody, human IgG4 S228P, kappa, V domains shown)
VH: B1 VH with A49S
VL: B1 VL with T72S, T85N
notes: Humanized, hIgG4-kappa
For B5, the concentration giving a half-maximal response (EC50) in [1] amounted to 0.233 nM.

B6: ABTIM3 (阳性对照抗体) (antibody, V domains shown)
VH: QVQLQQPGAELVKPGASVKMSCKASGYTFTSYNMHWIKQTPGQGLEWIGDIYPGNGDTSYNQKFKGKATLTADKSSSTVYMQLSSLTSEDSAVYYCARVGGAFPMDYWGQGTSVTVSS
VL: DIVLTQSPASLAVSLGQRATISCRASESVEYYGTSLMQWYQQKPGQPPKLLIYAASNVESGVPARFSGSGSGTDFSLNIHPVEEDDIAIYFCQQSRKDPSTFGGGTKLEIK
As to B6, the EC50 with 猕猴(Macaca)Tim-3蛋白 [2] was 0.14 nM; in the assay with 狨猴(marmoset) Tim-3蛋白, 0.4 nM; in assay [3], 0.376 nM; in [4] it was 0.15 to 0.23 nM.

B7: mab15-c (嵌合抗体, hIgG4-κ) (antibody, V domains shown)
VH: EVKLVESEGGLVQPGSSMKLSCTASGFTFSDYYMTWVRQVPEKGLEWVASINYDGRNTYYLDSLKSRFIISRDNAKNILYLQMSSLKSEDTATYYCARGYYYYGSSPNYFDYWGQGTTLTVSS
VL: DIQMTQSPASLSASVGETVTITCRASENIYSYLTWYQQKQGKSPQLLVYNAKTLAEGVPSRFSGSGSGTQFSLRINSLQPEDFGNYYCQQHYGTPLTFGAGTKLELKR
notes: Chimeric antibody: mab15 variable regions with human IgG4 / kappa constant regions
Turning to B7, in [3], the EC50 is 0.158 nM. In addition, in assay [1], the EC50 is 0.183 nM. In [5], the “fold better than the reference antibody (ratio of EC50, reference/mab15-c)” value was found to be 2.38 fold. In addition, in assay [6], binding was put at a Kd of 0.31 nM, the koff is 0.000106 s⁻¹ and the association rate constant (kon) turned out to be 344000 M⁻¹ s⁻¹.

B8: 人源化ab16 抗体 (antibody, human IgG4 S228P, kappa, V domains shown)
VH: B1 VH
VL: B1 VL with T72S, T85N
notes: Humanized, hIgG4-kappa
In the case of B8, the EC50 in [1] was found to be 0.145 nM; in [4], 0.151 nM.

B9: 人源化ab32抗体 (全人源化抗体) (antibody, human IgG4 S228P, kappa, V domains shown)
VH: B1 VH with A49S
VL: B1 VL with S43A, V48I, Q70D
notes: Fully humanized (no back mutations), hIgG4-kappa
Take B9: the koff in assay [7] amounted to 0.000296 s⁻¹. In addition, the “fold weaker than the positive control antibody” value with 猕猴(Macaca)Tim-3蛋白 [8] was roughly 100 fold. In addition, the EC50 was 11 nM with 猕猴(Macaca)Tim-3蛋白 [2], 0.184 nM in assay [1] and 0.112 nM in assay [4].

A word on the EC50: it is the concentration giving half of the maximal effect. By Kd is commonly meant the concentration at which binding is half-saturated. Lower therefore signals a tighter complex. As a reminder, the koff is the first-order rate constant of dissociation. Read a low koff as slow dissociation. Usually kon stands for a measure of how fast the partners come together. Low values mean slower complex formation, high ones faster complex formation.
